The results in this text go back to publication PMC11976344.

Ends that are not written are not given here.

The target of assay [1] is CCL8 (UniProt P80075).
In assay [2] the target is CCL8 (UniProt P80075). The source holds these as a separate data set.

Sequence of UniProt P80075 (P80075 24-99): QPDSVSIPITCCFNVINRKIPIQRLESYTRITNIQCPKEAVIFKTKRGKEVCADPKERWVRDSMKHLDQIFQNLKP

In the assay with CCL8 [1], Evasin P672 (natural protein) yielded an IC50 of inhibition of CCL8-induced THP1 cell migration of 4.6 to 10 nM.
YEDEDYEDFFKPVTCYF (also: dimer via disulfide between the Cys of the two copies) [BK1.3 (17-mer synthetic dimeric peptide derived from Evasin P672)] yielded an IC50 of inhibition of CCL8-driven THP-1 cell migration (dose-response peptide titration) in the assay with CCL8 [2] of 4.2 nM.
